Measurements taken from patent EP2014310A2 (Dyax Corporation, dated 2009).
Bridge positions count the residues as written; N and C are the ends. Ends that are not written are not given here.

What follows are binders tested against T1, human KDR-Fc fusion (R&D Systems #357-KD-050) (human, UniProt P35968 20-764) (assay: phage binding screen on KDR-Fc; class legend in paragraph 246).
T1 construct: bought
T1 sequence (P35968 20-764): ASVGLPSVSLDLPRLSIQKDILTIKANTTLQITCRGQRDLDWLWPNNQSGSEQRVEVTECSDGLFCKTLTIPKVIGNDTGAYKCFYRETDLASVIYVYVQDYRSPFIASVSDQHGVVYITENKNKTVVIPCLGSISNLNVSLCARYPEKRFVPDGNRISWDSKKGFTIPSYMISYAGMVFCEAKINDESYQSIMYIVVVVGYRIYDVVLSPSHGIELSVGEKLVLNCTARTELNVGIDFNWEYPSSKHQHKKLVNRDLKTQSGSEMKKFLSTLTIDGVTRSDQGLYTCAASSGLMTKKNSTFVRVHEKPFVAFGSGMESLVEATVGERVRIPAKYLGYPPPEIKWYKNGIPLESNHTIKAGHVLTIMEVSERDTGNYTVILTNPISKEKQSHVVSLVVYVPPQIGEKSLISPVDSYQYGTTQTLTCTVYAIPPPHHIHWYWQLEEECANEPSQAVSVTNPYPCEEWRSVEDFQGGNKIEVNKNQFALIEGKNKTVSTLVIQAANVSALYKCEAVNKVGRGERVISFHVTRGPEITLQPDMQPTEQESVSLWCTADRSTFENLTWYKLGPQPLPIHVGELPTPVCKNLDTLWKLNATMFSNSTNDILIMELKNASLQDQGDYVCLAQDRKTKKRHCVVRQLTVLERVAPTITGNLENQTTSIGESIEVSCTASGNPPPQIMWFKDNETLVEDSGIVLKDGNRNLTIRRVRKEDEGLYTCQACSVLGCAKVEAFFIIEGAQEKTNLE

Binder | binding result
DRWCMLDQEKGWWLCGPP [phage isolate DRWCMLDQEKGWWLCGPP] | binds
NSECGCPNMLHKEFCARH [phage isolate NSECGCPNMLHKEFCARH] | binds
PFWCKFQQSKAMFPCSWF [phage isolate PFWCKFQQSKAMFPCSWF] | binds
SDLCYNQSGWWELCYFD [phage isolate SDLCYNQSGWWELCYFD] | binds
LGYCMYDYENRGWTCYPP (not fully specified; cysteine pairing not given here) [phage isolate LGYCMYDYENRGWTCYPP] | binds
YYQCQRYWDGKTWWCEYN [phage isolate YYQCQRYWDGKTWWCEYN] | binds
DSWCELEHQSGIWRCDFW [phage isolate DSWCELEHQSGIWRCDFW] | binds
DWACDEYWSAYSVLCKHP [phage isolate DWACDEYWSAYSVLCKHP] | binds
LSLCYNDMHGWWEHCQWY [phage isolate LSLCYNDMHGWWEHCQWY] | binds
YSHCIETSMENIWFCDFD [phage isolate YSHCIETSMENIWFCDFD] | binds
PPFCIYQEPSGQWWCYDH [phage isolate PPFCIYQEPSGQWWCYDH] | binds
PGWCDFSPQLGQWMCDWF [phage isolate PGWCDFSPQLGQWMCDWF] | binds
LDNCIWNVWKGVQDCEYS [phage isolate LDNCIWNVWKGVQDCEYS] | binds
AGWCEYVAPQGAWRCFHN [phage isolate AGWCEYVAPQGAWRCFHN] | binds
WDDCIWHMWLKKKDCNSG [phage isolate WDDCIWHMWLKKKDCNSG] | binds
PGHCEYIWIDEQPWCVRL [phage isolate PGHCEYIWIDEQPWCVRL] | binds
YSDCLFQLWKGSVCPPS [phage isolate YSDCLFQLWKGSVCPPS] | binds
NGSCWYDFGWETEICFHN [phage isolate NGSCWYDFGWETEICFHN] | binds

What follows are binders tested against T1, human KDR-Fc fusion (R&D Systems …) (assay: Biacore, KDR-Fc on CM5 chip, unlabeled peptide).

Binder | Kd [nM]
Ac-AGPKWCEEDWYYCMITGTGGGK-NH2 (cysteine pairing not given here; also: C-terminal Lys fluorescein-labeled for some assays, unlabeled for others) [SEQ ID NO:264] | 27
Ac-GDYPWCHELSDSVTRFCVPWDPGGGK-NH2 (disulfide 6-17 (inferred); not fully specified) [SEQ ID NO:293] | 180
Ac-AQDWYYDEILSMADQLRHAFLSGGGK-NH2 (not fully specified) [SEQ ID NO:310] | 50

What follows are binders tested against T1, human KDR-Fc fusion (R&D Systems …) (assay: fluorescence anisotropy, fluorescein-labeled peptide).

Binder | Kd [nM]
Ac-GDYPWCHELSDSVTRFCVPWDPGGGK-NH2 (disulfide 6-17 (inferred); not fully specified) [SEQ ID NO:293] | 980

Biological target: T1, human KDR-Fc fusion (R&D Systems …)
Experiment: phage binding screen on KDR-Fc; class legend in paragraph 246
Remark: another data set of the same source

Binder | binding result
QVQYQFFLGTPRYEQWDLDK [phage isolate QVQYQFFLGTPRYEQWDLDK] | binds
QVQYQFILGTPRYEQWDPDK [phage isolate QVQYQFILGTPRYEQWDPDK] | binds
EPEGYAYWEVITLYHEEDGD [phage isolate EPEGYAYWEVITLYHEEDGD] | binds
WYYDWFHNQRKPPSDWIDNL [phage isolate WYYDWFHNQRKPPSDWIDNL] | binds
AFPRFGGDDYWIQQYLRYTD [phage isolate AFPRFGGDDYWIQQYLRYTD] | binds
AFPRFGGDDYWIQQYLRYTF [phage isolate AFPRFGGDDYWIQQYLRYTF] | binds
GDYVYWEIIELTGATDHTPP [phage isolate GDYVYWEIIELTGATDHTPP] | binds
RGDYQEQYWHQQLVEQLKLL [phage isolate RGDYQEQYWHQQLVEQLKLL] | binds
RSWYLGPPYYEEWDPIPN [phage isolate RSWYLGPPYYEEWDPIPN] | binds
PSNSWAAVWEDDMQRLMRQH [phage isolate PSNSWAAVWEDDMQRLMRQH] | binds
PRLGDDFEEAPPLEWWWAHF [phage isolate PRLGDDFEEAPPLEWWWAHF] | binds
MPPGFSYWEQVVLHDDAQVL [phage isolate MPPGFSYWEQVVLHDDAQVL] | binds
KKEDAQQWYWTDYVPSYLYR [phage isolate KKEDAQQWYWTDYVPSYLYR] | binds
WVTKQQFIDTYGRKEWTILF [phage isolate WVTKQQFIDTYGRKEWTILF] | binds
WLYDYWDRQQKSEEFKFWSQ [phage isolate WLYDYWDRQQKSEEFKFWSQ] | binds
PVTDWTPHHPKAPDVWLFYT [phage isolate PVTDWTPHHPKAPDVWLFYT] | binds
EWYWTEHVGMKHGFFV [phage isolate EWYWTEHVGMKHGFFV] | binds
DALEAPKRDWYYDWFLNHSP [phage isolate DALEAPKRDWYYDWFLNHSP] | binds
EWDAQYWHDLRQQYMLDYIQ [phage isolate EWDAQYWHDLRQQYMLDYIQ] | binds
AFEIEYWDSVRNKIWQHFPD [phage isolate AFEIEYWDSVRNKIWQHFPD] | binds
AQMPPWWPLAVDALFDWFE [phage isolate AQMPPWWPLAVDALFDWFE] | binds

Binder | binding result
ARMGDDWEEAPPHEWGWADG [phage isolate ARMGDDWEEAPPHEWGWADG] | binds
DWYWQRERDKLREHYDDAFW [phage isolate DWYWQRERDKLREHYDDAFW] | binds
DWYWREWMPMHAQFLADDW [phage isolate DWYWREWMPMHAQFLADDW] | binds
DWYYDEILSMADQLRHAFLS [phage isolate DWYYDEILSMADQLRHAFLS] | binds
EEQQALYPGCEPAEHWVYAG [phage isolate EEQQALYPGCEPAEHWVYAG] | binds
FDVVNWGDGIWYAYPS [phage isolate FDVVNWGDGIWYAYPS] | binds
FPSQMWQQKVSHHFFQHKGY [phage isolate FPSQMWQQKVSHHFFQHKGY] | binds
GSDHVRVDNYWWNGMAWEIF [phage isolate GSDHVRVDNYWWNGMAWEIF] | binds
ISPWREMSGWGMPWITAVPH [phage isolate ISPWREMSGWGMPWITAVPH] | binds
LEEVFEDFQDFWYTEHIIVDR [phage isolate LEEVFEDFQDFWYTEHIIVDR] | binds
MPPGFSYWEQAALHDDAQDL [phage isolate MPPGFSYWEQAALHDDAQDL] | binds
PEDSEAWYWLNYRPTMFHQL [phage isolate PEDSEAWYWLNYRPTMFHQL] | binds
QIEYVNDKWYWTGGYWNVPF [phage isolate QIEYVNDKWYWTGGYWNVPF] | binds
RDEWGWTGVPYEGEMGYQIS [phage isolate RDEWGWTGVPYEGEMGYQIS] | binds
STNGDSFVYWEEVELVDHPY [phage isolate STNGDSFVYWEEVELVDHPY] | binds
SYEQWLPQYWAQYKSNYFL [phage isolate SYEQWLPQYWAQYKSNYFL] | binds
TKWGPNPEHWQYWYSHYASS [phage isolate TKWGPNPEHWQYWYSHYASS] | binds
VSKGSIDVGEGISYWEIIEL [phage isolate VSKGSIDVGEGISYWEIIEL] | binds
WESDYWDQMRQQLKTAYMKV [phage isolate WESDYWDQMRQQLKTAYMKV] | binds
WYHDGLHNERKPPSHWIDNV [phage isolate WYHDGLHNERKPPSHWIDNV] | binds
